Consider one molecule from patent US20250041377A1, “PHARMACEUTICAL USE” (ENLITISA (SHANGHAI) PHARMACEUTICAL CO., LTD., priority 2018, published 2025).

Assay [1] has as its system Hyp, VEGF and TGF-β1 in wound tissue. Briefly: Acute wound model, ELISA of wound tissue. Conditions: for wound Hyp content (Mean): indicator of collagen regeneration; for TGF-β1 content (Mean): wound tissue. It is filed as in vivo, C57BL/6 mice. From the text:
(§1) The model group was given same amount of normal saline. There were 8 mice in each group.
Samples were taken at Day 4 and Day 7 post-wound infliction. The mice were sacrificed and the wound tissue taken by the same biopsy punch used to create the wound. Then 5 mm of tissue was cut off from the center of the sample and was preserved in 10% neutral buffered formalin (Nanchang Rain Dew Experimental Equipment Co., Ltd., Nanchang, Hubei Province, China), and analyzed by histological embedding (HE) in paraffin wax, sectioning and staining.
The rest of the samples were stored at −80° C. for further analysis. Tissue was cut into small pieces and liquid nitrogen was added to increase brittleness. 9 mL of normal saline was added to 1 g of tissue, which was then ground using a Tissuelyser (Shanghai Jingxin Industrial Development Co., Ltd., Shanghai, China) at 55 Hz for 60 seconds, followed by centrifuging at 8000 rpm for 10 minutes at 4° C.
The supernatant was collected, and the extracted protein was used for ELISA analysis using standard ELISA test kits and an ELISA reader (SH-1000 Hitachi, Japan). Vascular endothelial growth factor (VEGF), transforming growth factor beta 1 (TGF-β1) and hydroxyproline (Hyp) were assayed. The ELISA kits were purchased from Beijing 4A Biotech Co., Ltd. (Beijing, China).
(In an ELISA, binding on a coated surface is turned into a signal by an enzyme label.)

The test system of assay [2] is full thickness skin wound on the back. Kind of assay: Acute wound model, remaining wound area. It is filed as in vivo, C57BL/6 mice. Conditions: ± SD. As to the method:
6-8 weeks old male C57BL/6 mice were supplied by Changzhou Cvens Experimental Animal Co. Ltd (Changzhou, Jiangsu Province, China). Prior to any experiments being conducted, mice were housed under standardized conditions (at a constant temperature of 22±2° C., with alternating 12 hour periods of light and darkness), and were fed on a standard mouse diet with water, for about a week.
General anesthesia was induced using intraperitoneal 3% chloral hydrate (1 mL/10 g of body weight). The hair on the back was shaved by a baby hair shaver and depilated with cream. The skin area was wiped and sterilized with 75% alcohol twice.
An EMS skin biopsy punch (Electron Microscopy Sciences, P.O. Box 550, 1560 Industry Road, Hatfield, PA, USA) with a 18 mm diameter was used to make a round wound on the back. The full thickness of skin was removed and the depth of the wound reached the fascia. Wounds were left open without a suture.
as §1
Recombinant Human Epidermal Growth Factor (rhEGF, Shanghai Haohai Biological Technology Co. Ltd, 23/F, Shanghai, China) was purchased and prepared according to the manufacturer's instructions. The lyophilized rhEGF powder (100000 IU/vial) was dissolved in 20 mL of normal saline to make a solution with a concentration of 5000 IU/mL. The working dose of rhEGF for this experiment was 1285 IU/wound.
For this experiment, Compound A was also obtained from GL Biochem (Shanghai) Ltd. The peptide powders were stored at −20° C. and dissolved in saline at concentrations of 61.8 μg/mL (Compound A), and 61 μg/mL (Compound B). 50 μL of the solutions were applied onto the wound surfaces.
Wounds were dressed with gauze and transparent dresser after drug administration. Photographs were taken for each wound every other day from Day 0. Photos were scanned into a computer, and wound areas calculated using ImageJ image analysis software (National Institutes of Health, […]).
The unhealed wound area was expressed as a percentage of the original wound area: […]
where A0 and At refer to the initial area at Day 0 and the wound area at the date of measurement (time t), respectively.

B1: rhEGF: Recombinant Human Epidermal Growth Factor, lyophilized powder dissolved in normal saline (protein, UniProt P01133 23-1207, looked up)
Pro-epidermal growth factor: PQHWSCPEGTLAGNGNSTCVGPAPFLIFSHGNSIFRIDTEGTNYEQLVVDAGVSVIMDFHYNEKRIYWVDLERQLLQRVFLNGSRQERVCNIEKNVSGMAINWINEEVIWSNQQEGIITVTDMKGNNSHILLSALKYPANVAVDPVERFIFWSSEVAGSLYRADLDGVGVKALLETSEKITAVSLDVLDKRLFWIQYNREGSNSLICSCDYDGGSVHISKHPTQHNLFAMSLFGDRIFYSTWKMKTIWIANKHTGKDMVRINLHSSFVPLGELKVVHPLAQPKAEDDTWEPEQKLCKLRKGNCSSTVCGQDLQSHLCMCAEGYALSRDRKYCEDVNECAFWNHGCTLGCKNTPGSYYCTCPVGFVLLPDGKRCHQLVSCPRNVSECSHDCVLTSEGPLCFCPEGSVLERDGKTCSGCSSPDNGGCSQLCVPLSPVSWECDCFPGYDLQLDEKSCAASGPQPFLLFANSQDIRHMHFDGTDYGTLLSQQMGMVYALDHDPVENKIYFAHTALKWIERANMDGSQRERLIEEGVDVPEGLAVDWIGRRFYWTDRGKSLIGRSDLNGKRSKIITKENISQPRGIAVHPMAKRLFWTDTGINPRIESSSLQGLGRLVIASSDLIWPSGITIDFLTDKLYWCDAKQSVIEMANLDGSKRRRLTQNDVGHPFAVAVFEDYVWFSDWAMPSVMRVNKRTGKDRVRLQGSMLKPSSLVVVHPLAKPGADPCLYQNGGCEHICKKRLGTAWCSCREGFMKASDGKTCLALDGHQLLAGGEVDLKNQVTPLDILSKTRVSEDNITESQHMLVAEIMVSDQDDCAPVGCSMYARCISEGEDATCQCLKGFAGDGKLCSDIDECEMGVPVCPPASSKCINTEGGYVCRCSEGYQGDGIHCLDIDECQLGEHSCGENASCTNTEGGYTCMCAGRLSEPGLICPDSTPPPHLREDDHHYSVRNSDSECPLSHDGYCLHDGVCMYIEALDKYACNCVVGYIGERCQYRDLKWWELRHAGHGQQQKVIVVAVCVVVLVMLLLLSLWGAHYYRTQKLLSKNPKNPYEESSRDVRSRRPADTEDGMSSCPQPWFVVIKEHQDLKNGGQPVAGEDGQAADGSMQPTSWRQEPQLCGMGTEQGCWIPVSSDKGSCPQVMERSFHMPSYGTQTLEGGVEKPHSLLSANPLWQQRALDPPHQMELTQ
modifications: Pro-epidermal growth factor
notes: Recombinant Human Epidermal Growth Factor, lyophilized powder dissolved in normal saline
Consider B1, for which the “wound Hyp content (Mean)” value in assay [1] (Day 4) worked out at 1.808 µg/mg; in assay [1] (Day 7), 2.679 µg/mg. Further, the figures for the “TGF-β1 content (Mean)” value in assay [1] (Day 4) and in assay [1] (Day 7) were 18190.6 pg/g and 15443.1 pg/g, respectively. Also, the “ratio of remaining wound area of initial wound” value in assay [2] (Day 0, topical 50 μL/wound once daily, rhEGF 1285 IU/mouse, Compound A 3.09 μg/mouse, Compound B 3.05 μg/mouse) came out at 82.0 ± 2.2%; in assay [2] (Day 1, topical once daily) it was 100 ± 9.9%; in assay [2] (Day 2, topical once daily), 94.1 ± 4.3%; in assay [2] (Day 3, topical once daily), 78.6 ± 7.3%; in assay [2] (Day 4, topical once daily), 61.5 ± 3.3%; in assay [2] (Day 5, topical once daily), 53.0 ± 1.0%. Further, the “ratio of remaining wound area of initial wound” value in assay [2] (Day 6, topical once daily) came to 47.2 ± 5.8%.
